This data set deals with the molecule itself.

These results are taken from article PMC6814260 (Chembiochem : a European journal of chemical biology, 2019).

B1: XoxF, lanthanide-dependent methanol dehydrogenase from Methylobacterium extorquens AM1 (enzyme, UniProt C5B120 22-601, looked up)
chain: NESVLKGVANPAEQVLQTVDYANTRYSKLDQINASNVKNLQVAWTFSTGVLRGHEGSPLVVGNIMYVHTPFPNIVYALDLDQGAKIVWKYEPKQDPSVIPVMCCDTVNRGLAYADGAILLHQADTTLVSLDAKSGKVNWSVKNGDPSKGETNTATVLPVKDKVIVGISGGEFGVQCHVTAYDLKSGKKVWRGYSIGPDDQLIVDPEKTTSLGKPIGKDSSLKTWEGDQWKTGGGCTWGWFSYDPKLDLMYYGSGNPSTWNPKQRPGDNKWSMTIWARNPDTGMAKWVYQMTPHDEWDFDGINEMILTDQKFDGKDRPLLTHFDRNGFGYTLDRATGEVLVAEKFDPVVNWATKVDLDKGSKTYGRPLVVSKYSTEQNGEDVNSKGICPAALGTKDQQPAAFSPKTGLFYVPTNHVCMDYEPFRVTYTPGQPYVGATLSMYPAPGSHGGMGNFIAWDNLQGKIKWSNPEQFSAWGGALATAGDVVFYGTLEGFLKAVDSKTGKELYKFKTPSGIIGNVMTYEHKGKQHVAVLSGVGGWAGIGLAAGLTDPNAGLGAVGGYAALSSYTNLGGQLTVFSLPNN
Regarding B1, the stoichiometry N (as a rule, a count of units in the complex or per binding partner) is 2.
